Assay: immunofluorescence, data not shown
Details: glycan lost; control: untreated

B1: CLN5: tunicamycin (protein)
parent chain: MAQEVDTAQGAEMRRGAGAARGRASWCWALALLWLAVVPGWSRVSGIPSRRHWPVPYKRFDFRPKPDPYCQAKYTFCPTGSPIPVMEGDDDIEVFRLQAPVWEFKYGDLLGHLKIMHDAIGFRSTLTGKNYTMEWYELFQLGNCTFPHLRPEMDAPFWCNQGAACFFEGIDDVHWKENGTLVQVATISGNMFNQMAKWVKQDNETGIYYETWNVKASPEKGAETWFDSYDCSKFVLRTFNKLAEFGAEFKNIETNYTRIFLYSGEPTYLGNETSVFGPTGNKTLGLAIKRFYYPFKPHLPTKEFLLSLLQIFDAVIVHKQFYLFYNFEYWFLPMKFPFIKITYEEIPLPIRNKTLSGL
Q: For B1, which localisation_or_trafficking is on record?
A: changes

Reference: PMC3769244
